In patent US20250352667A1:
Positions count from the first letter of the chain named. Names may count otherwise.

Tests used:
[1] = molecular target: KEAP1 (wild-type full-length), His-tagged (human) (UniProt Q14145); experiment: AlphaScreen; NRF2 wt isoform 1 307.2 nM, KEAP1 150 nM; signal against NRF2-only control; control for Q75R
[2] = molecular target: KEAP1 (wild-type full-length), His-tagged (human) (UniProt Q14145); experiment: AlphaScreen; 19.2 nM FLAG-NRF2, 150 nM His-KEAP1; Repeat 1 (same value as in Table 26)
[3] = molecular target: KEAP1 (wild-type full-length), His-tagged (human) (UniProt Q14145); experiment: AlphaScreen; 614.4 nM FLAG-NRF2, 150 nM His-KEAP1; Rep 2; control for I86V
[4] = molecular target: KEAP1 (wild-type full-length), His-tagged (human) (UniProt Q14145); experiment: AlphaScreen; FLAG-NRF2 wt isoform 1 19.2 nM, His-KEAP1 150 nM; Rep 1; positive control for Q75R
[5] = molecular target: KEAP1 (wild-type full-length), His-tagged (human) (UniProt Q14145); experiment: AlphaScreen; 614.4 nM FLAG-NRF2, 150 nM His-KEAP1; Rep 1; control for I28V
[6] = molecular target: KEAP1 (wild-type full-length), His-tagged (human) (UniProt Q14145); experiment: AlphaScreen; 76.8 nM FLAG-NRF2, 150 nM His-KEAP1; signal against NRF2 only; control for I86V
[7] = molecular target: KEAP1 (wild-type full-length), His-tagged (human) (UniProt Q14145); experiment: AlphaScreen; FLAG-NRF2 wt isoform 1 153.6 nM, His-KEAP1 150 nM; Rep 2; positive control for Q75R
[8] = molecular target: KEAP1 (wild-type full-length), His-tagged (human) (UniProt Q14145); experiment: AlphaScreen; 153.6 nM FLAG-NRF2, 150 nM His-KEAP1; Rep 1; control for I28V
[9] = molecular target: KEAP1 (wild-type full-length), His-tagged (human) (UniProt Q14145); experiment: AlphaScreen; 153.6 nM FLAG-NRF2, 150 nM His-KEAP1; Rep 3; control for I86V
[10] = molecular target: KEAP1 (wild-type full-length), His-tagged (human) (UniProt Q14145); experiment: AlphaScreen; 2.4 nM FLAG-NRF2, 150 nM His-KEAP1; signal against NRF2 only; control for I28V
[11] = molecular target: KEAP1 (wild-type full-length), His-tagged (human) (UniProt Q14145); experiment: AlphaScreen; FLAG-NRF2 wt isoform 1 38.4 nM, His-KEAP1 150 nM; Rep 3; positive control for I86V
[12] = molecular target: KEAP1 (wild-type full-length), His-tagged (human) (UniProt Q14145); experiment: AlphaScreen; 9.6 nM FLAG-NRF2, 150 nM His-KEAP1 (same value as in Table 27)
[13] = molecular target: KEAP1 (wild-type full-length), His-tagged (human) (UniProt Q14145); experiment: AlphaScreen; over 9.6, 19.2 and 38.4 nM NRF2; 150 nM His-KEAP1
[14] = molecular target: KEAP1 (wild-type full-length), His-tagged (human) (UniProt Q14145); experiment: AlphaScreen; 1228.8 nM FLAG-NRF2, 150 nM His-KEAP1; Rep 1
[15] = molecular target: KEAP1 (wild-type full-length), His-tagged (human) (UniProt Q14145); experiment: AlphaScreen; 19.2 nM FLAG-NRF2, 150 nM His-KEAP1 (same value as in Table 27)
[16] = molecular target: KEAP1 (wild-type full-length), His-tagged (human) (UniProt Q14145); experiment: AlphaScreen; 153.6 nM FLAG-NRF2, 150 nM His-KEAP1; Rep 1
[17] = molecular target: KEAP1 (wild-type full-length), His-tagged (human) (UniProt Q14145); experiment: AlphaScreen; mean over 9.6, 19.2 and 38.4 nM NRF2 I86V, KEAP1 150 nM; relative to wild-type NRF2 isoform 1
[18] = molecular target: KEAP1 (wild-type full-length), His-tagged (human) (UniProt Q14145); experiment: AlphaScreen; NRF2 I86V 38.4 nM, KEAP1 150 nM; relative to wild-type NRF2 isoform 1 (100 %)
[19] = molecular target: KEAP1 (wild-type full-length), His-tagged (human) (UniProt Q14145); experiment: AlphaScreen; FLAG-NRF2 I86V 38.4 nM, His-KEAP1 150 nM; Rep 3
[20] = molecular target: KEAP1 (wild-type full-length), His-tagged (human) (UniProt Q14145); experiment: AlphaScreen; FLAG-NRF2 I86V 76.8 nM, His-KEAP1 150 nM; Rep 2
[21] = molecular target: KEAP1 (wild-type full-length), His-tagged (human) (UniProt Q14145); experiment: AlphaScreen; FLAG-NRF2 I86V 307.2 nM, His-KEAP1 150 nM; Rep 2
[22] = molecular target: KEAP1 (wild-type full-length), His-tagged (human) (UniProt Q14145); experiment: AlphaScreen; FLAG-NRF2 I86V 4.8 nM, His-KEAP1 150 nM; Rep 1
[23] = molecular target: KEAP1 (wild-type full-length), His-tagged (human) (UniProt Q14145); experiment: AlphaScreen; FLAG-NRF2 I86V 614.4 nM, His-KEAP1 150 nM; Rep 3
[24] = molecular target: KEAP1 (wild-type full-length), His-tagged (human) (UniProt Q14145); experiment: AlphaScreen; FLAG-NRF2 I86V 307.2 nM, His-KEAP1 150 nM; Rep 1
[25] = molecular target: KEAP1 (wild-type full-length), His-tagged (human) (UniProt Q14145); experiment: AlphaScreen; FLAG-NRF2 Q75R 9.6 nM, His-KEAP1 150 nM; Repeat 1
[26] = molecular target: KEAP1 (wild-type full-length), His-tagged (human) (UniProt Q14145); experiment: AlphaScreen; FLAG-NRF2 Q75R 4.8 nM, His-KEAP1 150 nM; Rep 2
[27] = molecular target: KEAP1 (wild-type full-length), His-tagged (human) (UniProt Q14145); experiment: AlphaScreen; NRF2 Q75R 1228.8 nM, KEAP1 150 nM; signal against NRF2-only control

KEAP1 (wild-type full-length), His-tagged (human), sequence (Q14145 2-624 limits assumed): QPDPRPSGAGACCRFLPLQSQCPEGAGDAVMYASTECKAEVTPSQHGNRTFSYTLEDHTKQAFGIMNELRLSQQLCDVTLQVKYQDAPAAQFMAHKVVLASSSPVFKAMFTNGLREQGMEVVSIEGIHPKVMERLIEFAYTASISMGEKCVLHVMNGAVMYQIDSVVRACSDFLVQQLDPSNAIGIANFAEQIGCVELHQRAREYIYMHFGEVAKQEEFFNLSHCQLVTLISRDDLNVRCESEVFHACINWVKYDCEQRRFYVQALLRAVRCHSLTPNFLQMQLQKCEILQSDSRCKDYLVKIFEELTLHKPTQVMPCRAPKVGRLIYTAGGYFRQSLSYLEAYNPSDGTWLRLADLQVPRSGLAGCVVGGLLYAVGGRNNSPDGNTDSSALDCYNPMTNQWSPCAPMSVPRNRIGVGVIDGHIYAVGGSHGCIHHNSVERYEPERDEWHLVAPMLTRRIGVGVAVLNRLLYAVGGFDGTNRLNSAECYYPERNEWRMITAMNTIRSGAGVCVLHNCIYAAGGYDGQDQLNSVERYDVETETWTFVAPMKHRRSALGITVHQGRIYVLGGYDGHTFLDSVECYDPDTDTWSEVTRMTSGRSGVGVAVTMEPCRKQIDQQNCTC

B1: NRF2 isoform 1 (wild-type full-length), FLAG-tagged (protein)
chain: MMDLELPPPGLPSQQDMDLIDILWRQDIDLGVSREVFDFSQRRKEYELEKQKKLEKERQEQLQKEQEKAFFAQLQLDEETGEFLPIQPAQHIQSETSGSANYSQVAHIPKSDALYFDDCMQLLAQTFPFVDDNEVSSATFQSLVPDIPGHIESPVFIATNQAQSPETSVAQVAPVDLDGMQQDIEQVWEELLSIPELQCLNIENDKLVETTMVPSPEAKLTEVDNYHFYSSIPSMEKEVGNCSPHFLNAFEDSFSSILSTEDPNQLTVNSLNSDATVNTDFGDEFYSAFIAEPSISNSMPSPATLSHSLSELLNGPIDVSDLSLCKAFNQNHPESTAEFNDSDSGISLNTSPSVASPEHSVESSSYGDTLLGLSDSEVEELDSAPGSVKQNGPKTPVHSSGDMVQPLSPSQGQSTHVHDAQCENTPEKELPVSPGHRKTPFTKDKHSSRLEAHLTRDELRAKALHIPFPVEKIINLPVVDFNEMMSKEQFNEAQLALIRDIRRRGKNKVAAQNCRKRKLENIVELEQDLDHLKDEKEKLLKEKGENDKSLHLLKKQLSTLYLEVFSMLRDEDGKPYSPSEYSLQQTRDGNVFLVPKSKKPDVKKN
- S/N [1]: 1.4
- A-counts [2]: 1980 A-counts
- A-counts [3]: 2520 A-counts
- A-counts (NRF2 plus KEAP1) [4]: 1360 A-counts
- A-counts [5]: 1780 A-counts
- S/N [6]: 2.4
- A-counts (NRF2 plus KEAP1) [7]: 1500 A-counts
- A-counts [8]: 1930 A-counts
- A-counts [9]: 2990 A-counts
- S/N [10]: 2.2
- A-counts (NRF2 plus KEAP1) [11]: 3130 A-counts

B2: NRF2 isoform 1 (I28V full-length), FLAG-tagged (protein)
chain: B1 chain with I28V
- S/N [12]: 3.4
- Standard Deviation (of binding percentage) [13]: 7.2%
- A-counts [14]: 995 A-counts
- S/N [15]: 3.2
- A-counts [16]: 1400 A-counts

B3: NRF2 isoform 1 (I86V full-length), FLAG-tagged (protein)
chain: B1 chain with I86V
- Average Binding [17]: 96.8%
- Avg. Reduction in Binding [17]: 3.2%
- Binding Percentage [18]: 93.7%
- A-counts (NRF2 plus KEAP1) [19]: 2930 A-counts
- A-counts (NRF2 plus KEAP1) [20]: 2800 A-counts
- A-counts (NRF2 plus KEAP1) [21]: 2120 A-counts
- A-counts (NRF2 plus KEAP1) [22]: 2170 A-counts
- A-counts (NRF2 plus KEAP1) [23]: 1920 A-counts
- A-counts (NRF2 plus KEAP1) [24]: 2210 A-counts

B4: NRF2 isoform 1 (Q75R full-length), FLAG-tagged (protein)
chain: B1 chain with Q75R
- A-counts (NRF2 plus KEAP1) [25]: 1180 A-counts
- A-counts (NRF2 plus KEAP1) [26]: 819 A-counts
- S/N [27]: 0.9
